Experimental data from patent US20060121553A1, “Fluorogenic enzyme assay methods, kits and compositions using charge-balancers” (Applera Corporation, priority 2004, published 2006).
*: point of attachment. Palmitoyl = CCCCCCCCCCCCCCCC(=O)*; K(Dye 2) = not defined here; code O = not defined here

Assays:
[1] = Total charge of substrate molecule and charge-balance molecule; format: physicochemical
Excerpt: FIG. 6B illustrates an exemplary charge-balance molecule (i.e. C16ArgArgOOOArgArgIleTyrGlyArgPheNH2, wherein OOO represents the optional O-spacers) that can be used balance the charge of the substrate molecule illustrated in FIG. 6A. The substrate molecule illustrated in FIG. 6A comprises a fluorescent moiety containing a sulfonate anion with a charge of ^−2. The substrate molecule illustrated in FIG. 6A further comprises a substrate moiety comprising three glutamate residues, each with a −1 charge. Thus, the total negative charge of the substrate molecule illustrated in FIG. 6A is ^−5 at physiological pH. […] The total positive charge of the charge-balance molecule illustrated in FIG. 6B is ^+5 at pH 7.6. Thus, the net charge of the compound comprising the substrate molecule illustrated in FIG. 6A and the charge-balance molecule illustrated in FIG. 6B is approximately zero at pH 7.6.

[2] = biological target: tyrosine kinase Lyn (Homo sapiens, UniProt P07948); assay: Detection of protein kinase activity (fluorogenic micelle assay); format: biochemical; conditions: 2 μM substrate molecule, 2 μM charge-balance molecule, 0 or 100 μM ATP, 5 nM Lyn; FIG. 8
Chain of tyrosine kinase Lyn (P07948 whole entry): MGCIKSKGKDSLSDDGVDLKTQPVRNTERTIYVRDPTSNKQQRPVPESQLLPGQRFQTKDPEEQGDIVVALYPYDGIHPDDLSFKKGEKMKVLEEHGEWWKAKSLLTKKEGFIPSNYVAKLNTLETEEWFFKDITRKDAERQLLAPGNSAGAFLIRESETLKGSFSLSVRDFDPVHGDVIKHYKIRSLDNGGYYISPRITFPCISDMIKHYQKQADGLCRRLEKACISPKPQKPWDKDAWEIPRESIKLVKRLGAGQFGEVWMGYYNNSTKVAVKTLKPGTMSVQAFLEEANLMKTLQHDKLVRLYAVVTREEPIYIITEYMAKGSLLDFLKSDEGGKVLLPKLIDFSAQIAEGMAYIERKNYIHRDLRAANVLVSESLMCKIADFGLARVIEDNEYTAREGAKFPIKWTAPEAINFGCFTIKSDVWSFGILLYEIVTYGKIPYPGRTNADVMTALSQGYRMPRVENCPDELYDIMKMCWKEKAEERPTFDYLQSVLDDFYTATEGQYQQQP
Protocol: Kinase assays were performed using Corning 384-well, black, non-binding surface (NBS), microwell plates. Fluorescence was read in real time using a Molecular Dynamics Gemini XS plate reader, with excitation and emission set at 500 and 550 respectively. The plate was read every minute for one hour at ambient temperature.
Concentrations of the substrate molecule C16Lys(Dye 2)OOOGluGluIleTyrGlyGluPheNH2 and charge-balance molecule C16ArgArgOOOArgArgIleTyrGlyArg PheNH2 were determined by dilution of the purified peptides into dimethylformamide (200 µL) with 1 M NaOH (5 µL) and measuring the absorbance of 5-carboxy-2′,7′-dipyridyl-sulfonefluorescein (Dye2) at its absorbance maximum (548 nm). The extinction coefficient of Dye2 was assumed to be 80,000 cm1M-1.
A reaction solution was prepared containing the substrate molecule C16Lys(Dye 2)OOOGluGluIleTyrGlyGluPheNH2 (2 μM), and charge-balance molecule C16ArgArgOOOArgArgIleTyrGlyArg PheNH2 (2 μM), 20 mM Tris buffer, pH 7.6, MgCl2 (5 mM), DTT (5 mM) and Lyn (5 nM). The solution was pipetted into wells of a 384-well plate ([…] per well). ATP (0 or 100 μM) was added to initiate the kinase reaction. The plate was read at 500 nm excitation, 550 nm emission, each minute for 1 hour.

[3] = system: T1, substrate molecule C16Lys(Dye 2)OOOGluGluIleTyrGlyGluPheNH2
T1 sequence: KEEIYGEF

## C16ArgArgOOOArgArgIleTyrGlyArgPheNH2 ({Palmitoyl-Arg-Arg-code O-code O-code O}-RRIYGRF-NH2; reading uncertain; also: printed as C16ArgArgOOOArgArgIleTyrGlyArgPheNH2) [charge-balance molecule balancing the charge of the substrate molecule; OOO = O-spacers]
[1]; pH 7.6
  total positive charge: +5

## C16Lys(Dye 2)OOOGluGluIleTyrGlyGluPheNH2 ({Palmitoyl-K(Dye 2)-code O-code O-code O}-EEIYGEF-NH2; reading uncertain; also: printed as C16Lys(Dye 2)OOOGluGluIleTyrGlyGluPheNH2) [substrate molecule for tyrosine kinase Lyn; OOO = O-spacers, Dye2 = 5-carboxy-2′,7′-dipyridyl-sulfonefluorescein]
[2]
  fluorescence change on addition of tyrosine kinase Lyn: increase in fluorescence over time
[1]; physiological pH
  total negative charge: −5

## tyrosine kinase Lyn
[3]
  fluorescence over time (rate of the kinase reaction, 0 or 100 µM ATP): The addition of tyrosine kinase Lyn to the micelle comprising the substrate molecule and charge-balance molecule cause an increase in fluorescence over time.
